Like-named read-outs stand apart in the source and are kept apart here.
T1: Cyno GUCY2C ECD (his-tagged cynomolgus monkey GUCY2C protein extracellular domain fusion protein) (cynomolgus monkey, UniProt P25092 24-430 (human entry))
T1 construct: also called monkey GUCY2C-his; monkey GUCY2C-His
T1 chain: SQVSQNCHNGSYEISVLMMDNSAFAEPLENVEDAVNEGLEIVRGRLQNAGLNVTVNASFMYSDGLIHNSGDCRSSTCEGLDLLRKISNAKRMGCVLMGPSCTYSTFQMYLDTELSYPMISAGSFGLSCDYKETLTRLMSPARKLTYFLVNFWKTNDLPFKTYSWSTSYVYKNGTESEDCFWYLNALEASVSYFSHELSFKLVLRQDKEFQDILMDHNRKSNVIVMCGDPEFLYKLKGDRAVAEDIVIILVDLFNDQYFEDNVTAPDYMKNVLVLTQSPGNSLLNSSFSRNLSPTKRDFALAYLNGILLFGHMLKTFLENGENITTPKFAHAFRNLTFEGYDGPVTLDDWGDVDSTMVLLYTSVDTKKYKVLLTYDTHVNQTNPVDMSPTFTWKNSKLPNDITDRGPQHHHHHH


What was measured:
[1] = target: T2, Human GUCY2C ECD (his-tagged human GUCY2C protein extracellular domain fusion protein) (human, UniProt P25092 24-430); assay: SPR Biacore, antibody on Protein A, antigen injected
T2 construct: also called human GUCY2C-his; human GUCY2C-His
Procedure: The strength of antibody-antigen binding was assayed with a BIAcore 8K instrument using a Protein A capture method. First, Protein A was immobilized onto a CM4 chip (purchased from GE, BR-1005-34) using an amino coupling method. According to the instruction of the Amine Coupling Kit (purchased from GE, BR100633), NHS and EDC were mixed with HBS-EP+pH 7.4 as a mobile phase to activate the chip for about 600 s; the Protein A was diluted to 50 μg/mL with 10 mM sodium acetate (pH 4.5) and injected for 600 s, and finally, the remaining activated sites were blocked with ethanolamine. Then, the affinity of the antibody for the antigen was assayed using a multi-cycle kinetic method; in each cycle, first, the antibody to be tested was captured using the Protein A chip, and then a single concentration of antigen protein was injected. The association and dissociation processes of the antibody with the antigen protein were recorded, and finally, the chip was regenerated using Glycine pH 1.5, wherein the mobile phase was HBS-EP+(10 mM HEPES, 150 mM NaCl, 3 mM EDTA, 0.05% surfactant P20), the flow rate was 30 μL/min, the regeneration time was 30 s, and the assay temperature was 25° C. Finally, according to a 1:1 binding model, the data were analyzed, and the antibody-antigen binding kinetics parameters, including the association rate constant Ka, the dissociation rate constant Kd, the equilibrium dissociation constant KD, and the maximum binding signal Rmax, were fitted.
After the finally obtained various humanized antibodies were expressed and purified, the affinities of the humanized antibodies for the human and monkey GUCY2C proteins were separately assayed according to the method in Example 4.6.

[2] = target: T2, Human GUCY2C ECD (his-tagged human …); assay: BLI Gator, antibody on anti-human Fc probe, antigen in solution
Procedure: (§1) Next, we measured the affinity of the recombinant antibody by another method, and the specific procedures were as follows: the binding strength of the antibody to the antigen was assayed by acquiring and analyzing the signal change of the reflection interference spectrum on the surface of the optical probe by using thin film interference technology. First, the probe was equilibrated for 300 s with HBS-T+pH 7.4 (0.02% tween) as the mobile phase. 2 μg/mL of the antibody to be tested was captured by an anti-human FC probe (purchased from ProbeLife, PL168-160003) for 240 s, and then antigen proteins with the concentration of 200 nM and diluted two-fold were injected. Kon for 300 s and Koff for 600 s. The association and dissociation processes of the antibody with the antigen protein were recorded, and finally, the chip was regenerated using Glycine pH 2.0 (purchased from GE), wherein the mobile phase was HBS-T+pH 7.4 (0.02% tween), the regeneration time was 5 s, and the assay temperature was 30° C. Finally, according to a 1:1 binding model, the data were analyzed, and the antibody-antigen binding kinetics parameters, including the association rate constant Ka, the dissociation rate constant Kd, the equilibrium dissociation constant KD, and the maximum binding signal Rmax, were fitted. The association rate (Ka), dissociation rate (Kd), and binding affinity (KD) of the recombinant antibodies with the human GUCY2C and monkey GUCY2C proteins are shown in Table 6.

[3] = target: T1, Cyno GUCY2C ECD (his-tagged cynomolgus …); assay: as above
Procedure: as §1

[4] = target: T3, human GUCY2C protein, full length, on cells (human, UniProt P25092 24-1073); assay: FACS on HT55 tumor cells (endogenous GUCY2C), MFI
T3 construct: whole, on cells; also called endogenous tumor cells HT55
Procedure: Then a complete medium was added to stop the digestion, and the cells were blown into a single cell suspension. After counting, the cells were centrifuged, and the cell pellet was resuspended to 2×10⁶ cells/mL in an FACS buffer (PBS+2% fetal bovine serum), and added to a 96-well FACS reaction plate at 100 μL/well. The plate was centrifuged, and the supernatant was discarded. An antibody sample to be tested (diluted in a 3-fold gradient from a starting concentration of 100 nM) was added at 50 μL/well and uniformly mixed with the cells, and the mixture was incubated at 4° C. for 1 h. […] The results were tested and analyzed by FACS (FACS Canto™, purchased from BD) after the plate was centrifuged and washed 3 times with a PBS buffer and resuspended with 100 μL of PBS. Data analysis was performed by software (FlowJo) to obtain the mean fluorescence intensity (MFI) of the cells. Then, analysis was performed by software (GraphPad Prism8), data were fitted, and EC50 values were calculated.
The binding of the recombinant antibody to the endogenous tumor cell HT55 was detected in the same manner.

[5] = target: T3, human GUCY2C protein, full length, on …; assay: FACS on HT55 tumor cells (endogenous GUCY2C), MFI; remark: listed apart in the source
[6] = target: T3, human GUCY2C protein, full length, on …; assay: FACS on HT55 tumor cells (endogenous GUCY2C), MFI; remark: listed apart in the source

T3 sequence (P25092 24-1073): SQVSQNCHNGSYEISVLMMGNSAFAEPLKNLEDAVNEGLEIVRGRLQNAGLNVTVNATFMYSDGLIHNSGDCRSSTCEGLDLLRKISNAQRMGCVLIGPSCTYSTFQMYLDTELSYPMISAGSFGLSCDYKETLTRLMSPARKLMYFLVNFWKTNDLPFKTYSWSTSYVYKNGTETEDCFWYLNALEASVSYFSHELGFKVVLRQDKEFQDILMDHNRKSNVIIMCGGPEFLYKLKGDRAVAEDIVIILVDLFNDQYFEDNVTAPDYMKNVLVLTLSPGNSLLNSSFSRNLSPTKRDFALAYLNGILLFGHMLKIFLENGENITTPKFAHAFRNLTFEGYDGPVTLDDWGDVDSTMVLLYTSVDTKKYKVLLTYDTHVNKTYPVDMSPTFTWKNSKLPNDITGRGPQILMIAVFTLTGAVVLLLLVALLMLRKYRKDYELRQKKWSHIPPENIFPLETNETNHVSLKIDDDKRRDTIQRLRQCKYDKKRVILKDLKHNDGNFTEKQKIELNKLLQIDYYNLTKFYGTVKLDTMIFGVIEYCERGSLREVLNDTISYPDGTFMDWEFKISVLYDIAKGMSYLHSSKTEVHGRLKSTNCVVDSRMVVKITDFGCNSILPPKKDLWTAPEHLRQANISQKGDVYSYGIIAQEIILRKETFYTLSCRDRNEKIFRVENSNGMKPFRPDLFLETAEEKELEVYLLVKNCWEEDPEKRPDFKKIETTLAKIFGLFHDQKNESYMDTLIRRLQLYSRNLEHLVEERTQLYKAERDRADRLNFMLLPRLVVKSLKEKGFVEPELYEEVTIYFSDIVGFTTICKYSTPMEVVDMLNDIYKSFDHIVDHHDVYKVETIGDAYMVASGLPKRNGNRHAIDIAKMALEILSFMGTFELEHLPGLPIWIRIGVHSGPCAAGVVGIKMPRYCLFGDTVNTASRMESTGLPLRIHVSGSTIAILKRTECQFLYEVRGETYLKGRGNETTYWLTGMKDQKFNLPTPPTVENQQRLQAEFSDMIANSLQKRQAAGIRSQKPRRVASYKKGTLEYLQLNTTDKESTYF
T2 sequence (P25092 other isoform, or with tags, fused parts or gaps): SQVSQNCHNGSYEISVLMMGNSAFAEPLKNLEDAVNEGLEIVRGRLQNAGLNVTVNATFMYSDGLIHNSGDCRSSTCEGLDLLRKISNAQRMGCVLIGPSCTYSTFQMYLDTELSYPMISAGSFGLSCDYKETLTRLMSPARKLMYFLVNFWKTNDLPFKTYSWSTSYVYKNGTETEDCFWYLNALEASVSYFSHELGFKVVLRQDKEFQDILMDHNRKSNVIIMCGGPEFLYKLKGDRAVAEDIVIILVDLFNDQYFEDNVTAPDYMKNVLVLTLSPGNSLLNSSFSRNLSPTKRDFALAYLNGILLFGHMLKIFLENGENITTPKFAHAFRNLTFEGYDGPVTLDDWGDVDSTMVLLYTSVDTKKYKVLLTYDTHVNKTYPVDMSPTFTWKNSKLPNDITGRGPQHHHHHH

| Binder | Kd [1] | koff [1] | kon [1] | Kd [2] | koff [2] | kon [2] | Kd [3] | koff [3] | kon [3] | EC50 (read off the curve) [4] | EC50 (read off the curve) [5] | EC50 (read off the curve) [6] |
| --- | --- | --- | --- | --- | --- | --- | --- | --- | --- | --- | --- | --- |
| PF1608-hIgG1 (antibody, V domains shown, also called PF1608-hlgG1; positive control antibody) VH: EVQLVESGGGLVQPGGSLRLSCAASGFTFSSYWMHWVRQAPGKGLEWIGEIKPSNELTNVHEKFKDRFTISVDKAKNSAYLQMNSLRAEDTAVYYCTRTITTTEGYWFFDVWGQGTLVTVSS VL: DIQLTQSPSSLSASVGDRVTITCRASESVDYYGSSLLQWYQQKPGKAPKLLIYAASKLASGVPSRFSGSGSGTDFTLTISSLQPEDFATYYCQQTRKAYTFGQGTKLEIKR | 1.63 nM | 0.000258 s⁻¹ | 158000 M⁻¹ s⁻¹ | 0.494 nM | 0.000197 s⁻¹ | 400000 M⁻¹ s⁻¹ | 0.256 nM | 0.000138 s⁻¹ | 540000 M⁻¹ s⁻¹ | – | – | – |
| 5F9-hIgG1 (antibody, V domains shown, also called positive control antibody) VH: QVQLQQWGAGLLKPSETLSLTCAVFGGSFSGYYWSWIRQPPGKGLEWIGEINHRGNTNDNPSLKSRVTISVDTSKNQFALKLSSVTAADTAVYYCARERGYTYGNFDHWGQGTLVTVSS VL: EIVMTQSPATLSVSPGERATLSCRASQSVSRNLAWYQQKPGQAPRLLIYGASTRATGIPARFSGSGSGTEFTLTIGSLQSEDFAVYYCQQYKTWPRTFGQGTNVEIKR | 4.05 nM | 0.000565 s⁻¹ | 140000 M⁻¹ s⁻¹ | 1.14 nM | 0.000448 s⁻¹ | 391000 M⁻¹ s⁻¹ | 0.998 nM | 0.000486 s⁻¹ | 487000 M⁻¹ s⁻¹ | ~0.3 nM | ~0.3 nM | ~0.3 nM |

From patent US20250075006A1 (SHANDONG SIMCERE BIOPHARMACEUTICAL, published 2025)
